From the DeepSol protein solubility set come the findings set out here.

The nature of the series: soluble on expression in E. coli; label from the status in PepcDB or PDB records.
Turning to “GAQRRNEIQVPDLDGYTTLKCDFHMHSVFSDGLVWPTVRVDEAYRDGLDAISLTEHIEYRPHKQDVVSDHNRSFDLCREQAEKLGILLIKGSEITRAMAPGHFNAIFLSDSNPLEQKDYKDAFREAKKQGAFMFWNHPGWDSQQPDTTKWWPEHTALYQEGCMHGIEVANGHLYMPEAIQWCLDKNLTMIGTSDIHQPIQTDYDFEKGEHRTMTFVFAKERSLQGIREALDNRRTAAYFHELLIGREDLLRPFFEKCVKIEEVSRNEQGVTLSITNVTDLVLKLKKTAHDTLLVYFRDMTLKPHTRYTVRIGFKQGIKGGDVNFEVTNFIVAPDKGLKYTISL”, the “soluble on expression in E. coli” value is reported as “soluble”.

In the case of “MCSTFMHKFYNSFYFGVMLTTRKEEQMLSKIVWSLLKPQLSSRSYLYNKFVVPPLQIIYVQ”, the “soluble on expression in E. coli” value is reported as “soluble”.

Turning to “MASQAASKAVTFAYNGTIASTLRKFAWSNLWGGREYGLQFHDTYFEPAPEVTEALRRLNLQEPHVFDQRKIRLSRAHTLALHGEKLPKAEWTQWDQESWYLKPYLDEIEAEKKARAETSGLIPPYQMKQH”, the “soluble on expression in E. coli” value was “not soluble”. For “MGSDKIHHHHHHMLLKPDQRLKLDDTDDNLFYAYPRFVTHVDEGFIQQLTDLYRERLQPNTRILDMMSSWVSHLPEEIKFAHVEGHGLNAEELGRNPQLNHYFVQNLNENPGLPLPDQEFDAVLNCVSVQYLQYPEAVFSEIHRILKPGGVAIISFSNRMFYQKAIQAWRDASEPGRLELVKRYFASVPGFSTPEIIARKSTAPNFLQWLGAPGGDPFYAAIAHREGFA”, the “soluble on expression in E. coli” value is “not soluble”. The value for “MTKLVLTPADTFFFKNHHATQAGETTVMESMFPPRPNTIYGALRAAYIYAYSSFDEFARGADERVKLWMGTPDERGAFRLHYCALADGDSLFLPLPLDYQVVEEGDSLKAYPLQLAKDRKPSSASTMWRLASSRREKTKSSQHRYVSLSEWKKALLLNQPIASLRTLSSFIVQEEKVGIQLDVSRRTAQEGFLYRVGKHRFLGDSSLVAYIDDGPDFSNVKWARIGGENRPWFIRQHPEEFRLWNDDEKRRIEQDIQRTKMAKIIFLSPAIFANGSRPAAMEGDRWTWPNGAVVTWLAAAIGRPELYGGWDIVRHRPKPRKWMIPAGSVIYVKIERDDDLRLVFSALDGIHLTDEGAEEGFGFAVLASVHESEEEL” was “not soluble”. Take “MKLQQLKYALEVYQHNLNVSEAAEALFTSQPGISKQIKLLEEEIGIQIFIRSGKRVVSVSQPGKVVLDIAERILRDVQNIKNIGSEFTGQDSGSLTVATTHTQARYALPLIVADFVKRYPKVNLTIKQGSPAAIARMVTSGEADLAIVTERIDDHPELGKLPCYDWTHAVIVPNDHPLLECRNPLRIEDLARFPLITYEFAFNAGSSIARAFSKARLEQPDVALAAADTDVLKTYVRLGLGVGLMAKMAYNPDTDGDLQLVDAAHLFEPSPTWIALRSDTYLRGYAYDFIQAFAPHLTREKVDRILYTPISEDFSI”: the “soluble on expression in E. coli” value is reported as “soluble”. In the case of “MNRILSMIEQMEPGVVIFNDDLTISSVSSMVFMIFGHIPRERIFAGDLLDIHDEAAREKVKETLRLARQAQRHIPLSLKFITSEGHDRYLLVKLITVAERDPASEKICALFYDITPFIVAERKLTRVPVTSRGDIHLLRPEEIVYLKADNIYSLIYTEAGEFHSDLSLGAMEKRLSEDIFYRIHRSYLVNLAKVRKVHRESSECTVAAGGGEVRLPVSRDKMQRFLTDLGLK”, the “soluble on expression in E. coli” value was “not soluble”. As for “MGSDKIHHHHHHMLTDHRCTKYTDCSSCSFYQRDIFKYRLYPKGYVIPQTRCMQNMVFFLVKGEIWLNSEEHPDTTFRGGQFVLQPIGSKVECKVLDYTECIIYLFERPQNICDNRFNKGISIVENERQQPIVMTMVPPIQLFIEGMKLYLNDDLRCSGLMQAKRSEMVYLLNCYYPIKELAAFYAPIYRYSHSFQYFVMQNYQKAKDVETFAQLGGYSVPTFRRIFKDTFGEPAYQWMLKRKCQDIHNDLIMTELSISEICYKYGFESLSNFSHFCRANFGQSPRSVRSLKDENT”, the “soluble on expression in E. coli” value was “not soluble”. “MTDLSRSQFGFRKARSTVDVVNIVVKVAAQAIEGIMVTLDIRNVFNTARWDRIIKALIGFGELAYLVRIIRSYFSKRVLLCESSEGVFSPQVTGGVPKGSVLGQLLWNAMKTGYFAYHWLRGTNRRLRGRRGFARCLEHHHHHH”: the “soluble on expression in E. coli” value was “not soluble”. Turning to “TVVEEDTGGNTDLEAVRRTLLAQFEQYAKLNKKIPAEIIGSINGIAENSRLTDTVAAHLQLKLAQRQQILEIPEIGKRMEFLLAQLESELDIMQAEKRIRGRVKRQMEKSQREYYLNEQIKAIHKELGEEDENGELDALEADIKKAGMTKEAEEKCLSELKKLKMMPPMSAESTVVRNYIDTLLELPWKKKSRVSKDIAKAGLVLDADHYGLEKVKERILEYLAVQKRMDKLKGPILCLVGPPGVGKTSLGESIAKATGRKYVRMALGGVRDESEIRGHRRTYIGSMPGKILQNMAKAGVKNPLFLLDEIDKLGNDFRGDPASALLEVLDPEQNNKFADHYAEVDYDLSDVMFIATSNSLNIPTPLLDRMEIIRL”, the “soluble on expression in E. coli” value is “not soluble”.

With “MKSQFLLSVKEHMLTRYYANKTIESYLFWIKRFIVFHQFAHPSKLSEDDVIRFLSHLAIDEKVAVKTQALALNAISFLYRDFFKTPLSLDMRFQKSLTEKKLPVVLTRDEVRRFV”, the “soluble on expression in E. coli” value is listed as “not soluble”.

In the case of “MSLTLVDIHCHILPGIDDGSKDWETSIKLARDAVKDGITHAVCTPHTLNGKYLNHKDDVIRLTENFQDMLDEAKIPLTVFPGQEVRISGDLPDALDNDDILFLDEEGQYMLLEFPSDDVPTYAKDMIFSIQQRGITPIVVHPERNSRILKEPHILQELIEQGCLVQITASSYVGTFGQKIEEMSRRFIEAGQCACFASDAHDLPKRQYEYSAALKKLSNEFGSGRAQEFEDNARAIVNGDNVQLNWRPLKKKKKFWLFEGHHHHHH”, the “soluble on expression in E. coli” value is “not soluble”.

Take “SNAMANTSSDWAGAPQNASADGEFVRDTNYIDDRIVADVPAGSEPIAQEDGTFHWPVEAGRYRLVAARACPWAHRTVITRRLLGLENVISLGLTGPTHDVRSWTFDLDPNHLDPVLQIPRLQDAYFNRFPDYPRGITVPALVEESSKKVVTNDYPSITIDFNLEWKQFHREGAPNLYPAELREEMAPVMKRIFTEVNNGVYRTGFAGSQEAHNEAYKRLWVALDWLEDRLSTRRYLMGDHITEADIRLYPTLVRFDAVYHGHFKCGRNKITEMPNLWGYLRDLFQTPGFGDTTDFTEIKQHYYITHAEINPTRIVPVGPDLSGFATPHGREKLGGSPFAEGVTLPGPIPAGEEVKNPEPFQK”: the “soluble on expression in E. coli” value was “soluble”. “MSSVAPSVRLFFALWPQEAVRKQLARLARRIADQCAGRCVRPENLHLTLAFIGEVDSSVVPILRQAGSAIHRTSFDLLLDKLHCWGKGSIIAAGVSQPCGELTVLVQDLRNQLSAAGVRYDTVKFVPHVTLVRNAKREPEQKHFPETIPPVAWAADRWSLVQSRPTPYGSAYQSFADWALASQDFDEHHRA”: the “soluble on expression in E. coli” value is “not soluble”. The value for “MPNEQKRFVTGPAGRLETVVTLPEGAPRGLAIVAHPHPLYQGSMDNKIVYILSRAFIEQQYITVKFNFRGVGASEGSYAEGKGEIEDVMAVTQAMREQYDTGPEPLPLTLAGFSFGGAVQAHVAQQLKPSRLVLVAPSVERLQAPPVVDHARHILVIQGDQDTIVPLQSILNWAAPQTLPVTVIPGAEHFFHGKLHVLKNVILQSCSISQAATSLYP” was “not soluble”. The value for “MADLQKNFQTSFRDAMASCAAGVHVITTDGAAGRYGITMTAVAPVTDEPPTVMLCINRSARIIPILSENGSLCINTLADEHQDVAEHFAGLTGLSPEERFAYHIWHRGKTGQLEIEGALAHLHGHIVGKHEIGTHFVFYVRLDEIKNCGCKRPALLYFRRQFRFLD” was “not soluble”.
